In PMC11438860, “Human 8-oxoguanine glycosylase OGG1 binds nucleosome at the dsDNA ends and the super-helical locations”:

What was measured:
OGG1(K249Q) = OGG1(K249Q) (human, UniProt O15527 1-345, K249Q); assay: cryo-EM; protein:DNA 1.5:1; 8-oxoG flipped out, DNA bent 65 degrees; 3.6 A; EMSA: 40 mM HEPES pH 7.4, 50 mM NaCl, 5 mM bME, 5% glycerol, 30 min on ice, 4-20% native gel; cryo-EM OGG1-DNA assembly: 20 mM HEPES pH 7.4, 100 mM NaCl, 5 mM bME, on ice; details: protein: recombinant; tags: N-terminal 6His; blunt
full-length OGG1 (EMSA) = full-length OGG1 (EMSA) (human, UniProt O15527 1-345); assay: EMSA; 2.5 uM DNA; all DNA shifted at 5 uM protein or above; two super-shift bands; EMSA: 40 mM HEPES pH 7.4, 50 mM NaCl, 5 mM bME, 5% glycerol, 30 min on ice, 4-20% native gel; cryo-EM OGG1-DNA assembly: 20 mM HEPES pH 7.4, 100 mM NaCl, 5 mM bME, on ice; details: protein: recombinant; blunt
Chain of full-length OGG1 (EMSA) (O15527 whole entry): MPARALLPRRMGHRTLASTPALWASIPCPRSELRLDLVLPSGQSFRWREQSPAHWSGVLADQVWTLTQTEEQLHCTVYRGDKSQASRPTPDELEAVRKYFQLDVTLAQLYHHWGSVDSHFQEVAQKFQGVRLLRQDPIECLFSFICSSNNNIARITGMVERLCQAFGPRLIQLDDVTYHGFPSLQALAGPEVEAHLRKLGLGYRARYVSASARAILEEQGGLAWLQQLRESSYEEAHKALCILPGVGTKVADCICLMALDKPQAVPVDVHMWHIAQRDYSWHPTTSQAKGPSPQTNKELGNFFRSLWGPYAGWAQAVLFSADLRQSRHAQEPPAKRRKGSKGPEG

Chain of OGG1(K249Q) (O15527 whole entry K249Q): as the sequence (O15527 whole entry) above, with K249Q counted along it

B1: 35-bp 8-oxoG DNA (dsDNA)
DNA 1: ATGCCTCGCAGAATCCCGCTGCCGAGGCCGCTCAA
DNA 2: TTGAGCGGCCTCGGCAGCGGGATTCTGCGAGGCAT
modifications: 8-oxo-dG at position 18 of strand 1 (text numbers it 17), within unmethylated Cp-8-oxoG
binding result (OGG1(K249Q)): binds
binding result (full-length OGG1 (EMSA)): binds
